Measured values published in paper PMC6008586, “Analysis of transition state mimicry by tight binding aminothiazoline inhibitors provides insight into catalysis by human O-GlcNAcase” (Chemical Science, 2016).

What was measured:
Assay in all cases: Kinetic analysis of hOGA-catalysed hydrolysis of fluorogenic substrates
Assay type in all cases: biochemical, human
[1] = substrate: CCCNC(=O)N[C@H]1[C@H](Oc2ccc3c(C)cc(=O)oc3c2)O[C@H](CO)[C@@H](O)[C@@H]1O; settings: other: substrate of hOGA, pH 7.4 PBS, 2.5% DMF, 37.0 °C
Text: (§1) Given the greater than 100-fold increase in potency we observe for the 2′-aminothiazoline inhibitors over their thiazoline counterparts and their structural resemblance to the oxazoline intermediate found along the reaction coordinate of hOGA, we wanted to assess whether incorporation of the 2′-amino group benefitted binding through serendipitous interactions, or whether the presence of the charge included in this class of inhibitors also made them TS analogues. We therefore turned to using the Bartlett LFER approach. […] We started from 4-methylumbelliferyl 2-amino-2-deoxy-β-D-glucopyranoside hydrochloride (16) as a common intermediate.[54] Per-O-acetylated urea substrates 17a–e were prepared by reacting 16 with the appropriate alkylisocyanate in the presence of triethylamine, followed by Zemplen de-O-acetylation. With this series of substrates (18a–e) in hand we determined the kcat/Km values governing their hOGA catalyzed hydrolysis (ESI Table S1 ^†). […] In contrast, we find no correlation between log Ki values for the inhibitors and log Km values for the series of substrates (Fig. 6B). […]
(§2) Biological evaluation: Gene expression and protein purification. hOGA was expressed and purified according to the previously described procedure by Macauley et al.[5] hOGA was dialyzed twice against PBS buffer after purification and its concentration determined using the Nanodrop2000. Human β-hexosaminidase was obtained from Micheal Tropak at the Hospital for Sick Children in Toronto, without further purification.
(§3) Kinetic analysis of hOGA. All assays were carried out in 96 well plates (Thermoscientific, FloroNunc, lot # 139825) in PBS pH 7.4 buffer (0.03% BSA) in triplicate at 37°C for 20 minutes. A continuous assay procedure was performed in which the reactions were initiated by the addition of 4-MUGlcNAc substrate (50 µL or 100 µL via a multi-channel […]
(§4) The excitation and emission were 350 and 445 nm, respectively. The amount of fluorogenic substrate liberated was quantitatively assessed by using a standard curve for 4-methylumbelliferone under identical buffer conditions. A total of 6-8 inhibitor concentrations were tested, […]
(§5) The hOGA concentrations in the assays ranged from 0.8 nM to 20 nM, depending on whether the Ki being determined was through classic Michaelis-Menten methods or the Morrison Ki fit. For full Ki […]
(§6) For the Morrison Ki analyses, only one substrate concentration was used (at the Km) since the method of inhibition was already known from analysis using the Line-weaver Burke plots. The representative hOGA Ki plots are summarized in Supplemental Figures S1, S2 and S3. Kinetic analysis of substrates 18a-e were performed in triplicate using pH 7.4 PBS buffer (0.03% BSA) containing 2.5% DMF, with varying enzyme concentrations. The Michaelis-Menten curves for substrates 18a-e with hOGA are summarized in Supplemental Figure S6 and the kinetic parameters are described in Supplemental Table S1. […]
(§7) # 139825) at pH 4.25 (50 mM citrate, 100 mM NaCl, 0.03% BSA) at 37°C in triplicate for 20 minutes. Enzymatic reactions were triggered by addition of substrate (20 µL or 15 µL) in a total volume of 45 or 40 µL. Reactions were quenched by the addition of a 4-fold excess (160 or 180 µL) of quenching buffer (200 mM glycine, pH 10.75) in order to […]

[2] = substrate: Cc1cc(=O)oc2cc(O[C@@H]3O[C@H](CO)[C@@H](O)[C@H](O)[C@H]3NC(N)=O)ccc12; settings: other: estimated by non-linear regression, saturation of hOGA not observed, pH 7.4 PBS, 2.5% DMF, 37.0 °C
Text: as §1, §2, §3, §4, §5, §6, §7

[3] = substrate: CCCCNC(=O)N[C@H]1[C@H](Oc2ccc3c(C)cc(=O)oc3c2)O[C@H](CO)[C@@H](O)[C@@H]1O; settings: other: substrate of hOGA, pH 7.4 PBS, 2.5% DMF, 37.0 °C
Text: as §1, §2, §3, §4, §5, §6, §7

[4] = substrate: CCNC(=O)N[C@H]1[C@H](Oc2ccc3c(C)cc(=O)oc3c2)O[C@H](CO)[C@@H](O)[C@@H]1O; settings: other: substrate of hOGA, pH 7.4 PBS, 2.5% DMF, 37.0 °C
Text: as §1, §2, §3, §4, §5, §6, §7

[5] = substrate: CNC(=O)N[C@H]1[C@H](Oc2ccc3c(C)cc(=O)oc3c2)O[C@H](CO)[C@@H](O)[C@@H]1O; settings: other: estimated by non-linear regression, saturation of hOGA not observed, pH 7.4 PBS, 2.5% DMF, 37.0 °C
Text: as §1, §2, §3, §4, §5, §6, §7

B1: hOGA (Homo sapiens) (protein)
chain: MVQKESQATLEERESELSSNPAASAGASLEPPAAPAPGEDNPAGAGGAAVAGAAGGARRFLCGVVEGFYGRPWVMEQRKELFRRLQKWELNTYLYAPKDDYKHRMFWREMYSVEEAEQLMTLISAAREYEIEFIYAISPGLDITFSNPKEVSTLKRKLDQVSQFGCRSFALLFDDIDHNMCAADKEVFSSFAHAQVSITNEIYQYLGEPETFLFCPTEYCGTFCYPNVSQSPYLRTVGEKLLPGIEVLWTGPKVVSKEIPVESIEEVSKIIKRAPVIWDNIHANDYDQKRLFLGPYKGRSTELIPRLKGVLTNPNCEFEANYVAIHTLATWYKSNMNGVRKDVVMTDSEDSTVSIQIKLENEGSDEDIETDVLYSPQMALKLALTEWLQEFGVPHQYSSRQVAHSGAKASVVDGTPLVAAPSLNATTVVTTVYQEPIMSQGAALSGEPTTLTKEEEKKQPDEEPMDMVVEKQEETDHKNDNQILSEIVEAKMAEELKPMDTDKESIAESKSPEMSMQEDCISDIAPMQTDEQTNKEQFVPGPNEKPLYTAEPVTLEDLQLLADLFYLPYEHGPKGAQMLREFQWLRANSSVVSVNCKGKDSEKIEEWRSRAAKFEEMCGLVMGMFTRLSNCANRTILYDMYSYVWDIKSIMSMVKSFVQWLGCRSHSSAQFLIGDQEPWAFRGGLAGEFQRLLPIDGANDLFFQPPPLTPTSKVYTIRPYFPKDEASVYKICREMYDDGVGLPFQSQPDLIGDKLVGGLLSLSLDYCFVLEDEDGICGYALGTVDVTPFIKKCKISWIPFMQEKYTKPNGDKELSEAEKIMLSFHEEQEVLPETFLANFPSLIKMDIHKKVTDPSVAKSMMACLLSSLKANGSRGAFCEVRPDDKRILEFYSKLGCFEIAKMEGFPKDVVILGRSL
notes: made in house
Q: Which Km [1] does the source give for B1 here?
A: 120 ± 11 µM

Q: What about the Km [2] of the same protein?
A: 1265 ± 259 µM

Q: And the Km [3]?
A: 30 ± 3 µM

Q: What about the Km [4] of the same protein?
A: 85 ± 20 µM

Q: And the Km [5]?
A: 1825 ± 542 µM
